B1: 1ZHC (parent)
chain: HEFRDEISVLKANNPHFDKIFEKHNQLDDDIKTAEQQNASDAEVSHMKKQKLKLKDEIHSMIIEYREK

In the series the parent is B1. Description: folding stability dG (cDNA display proteolysis); higher = more stable. The note with it: PBS, room temperature.
Turning to HEFRDEISVLKANNEHFDKIFEKHNQLDDDIKTAEQQNASDAEVSHMKKQKLKLKDEIHSMIIEYREK [P15E], the “folding stability dG” value stood at 0.365 kcal/mol. Consider HEFRDEISVLKANNVHFDKIFEKHNQLDDDIKTAEQQNASDAEVSHMKKQKLKLKDEIHSMIIEYREK [P15V], for which the “folding stability dG” value is 0.356 kcal/mol. On to HEFRDEISVLKANNLHFDKIFEKHNQLDDDIKTAEQQNASDAEVSHMKKQKLKLKDEIHSMIIEYREK [P15L], for which the “folding stability dG” value was found to be 0.336 kcal/mol. Consider HEFRDEISVLKANNDHFDKIFEKHNQLDDDIKTAEQQNASDAEVSHMKKQKLKLKDEIHSMIIEYREK [P15D], for which the “folding stability dG” value was 0.108 kcal/mol. Consider HEFRDEISVLKANNGHFDKIFEKHNQLDDDIKTAEQQNASDAEVSHMKKQKLKLKDEIHSMIIEYREK [P15G], for which the “folding stability dG” value is 0.048 kcal/mol. HEFRDEISVLKANNHHFDKIFEKHNQLDDDIKTAEQQNASDAEVSHMKKQKLKLKDEIHSMIIEYREK [P15H]: the “folding stability dG” value is 0.38 kcal/mol. Turning to HEFRDEISVLKANNSHFDKIFEKHNQLDDDIKTAEQQNASDAEVSHMKKQKLKLKDEIHSMIIEYREK [P15S], the “folding stability dG” value came out at 0.822 kcal/mol. For the variant HEFRDEISVLKANNWHFDKIFEKHNQLDDDIKTAEQQNASDAEVSHMKKQKLKLKDEIHSMIIEYREK [P15W], the “folding stability dG” value turned out to be 0.335 kcal/mol. For HEFRDEISVLKANNMHFDKIFEKHNQLDDDIKTAEQQNASDAEVSHMKKQKLKLKDEIHSMIIEYREK [P15M], the “folding stability dG” value came out at 0.07 kcal/mol.

Turning to HEFRDEISVLKANNCHFDKIFEKHNQLDDDIKTAEQQNASDAEVSHMKKQKLKLKDEIHSMIIEYREK [P15C], the “folding stability dG” value was 0.845 kcal/mol.

Turning to HEFRDEISVLKANNRHFDKIFEKHNQLDDDIKTAEQQNASDAEVSHMKKQKLKLKDEIHSMIIEYREK [P15R], the “folding stability dG” value is 0.029 kcal/mol. As to HEFRDEISVLKANNQHFDKIFEKHNQLDDDIKTAEQQNASDAEVSHMKKQKLKLKDEIHSMIIEYREK [P15Q], the “folding stability dG” value turned out to be 0.122 kcal/mol. Regarding HEFRDEISVLKANNYHFDKIFEKHNQLDDDIKTAEQQNASDAEVSHMKKQKLKLKDEIHSMIIEYREK [P15Y], the “folding stability dG” value was -0.634 kcal/mol. Under HEFRDEISVLKANNIHFDKIFEKHNQLDDDIKTAEQQNASDAEVSHMKKQKLKLKDEIHSMIIEYREK [P15I] stands 0.31 kcal/mol; under HEFRDEISVLKANNNHFDKIFEKHNQLDDDIKTAEQQNASDAEVSHMKKQKLKLKDEIHSMIIEYREK [P15N], 0.045 kcal/mol. Turning to HEFRDEISVLKANNKHFDKIFEKHNQLDDDIKTAEQQNASDAEVSHMKKQKLKLKDEIHSMIIEYREK [P15K], the “folding stability dG” value amounted to 0.313 kcal/mol. For HEFRDEISVLKANNTHFDKIFEKHNQLDDDIKTAEQQNASDAEVSHMKKQKLKLKDEIHSMIIEYREK [P15T], the “folding stability dG” value was 0.292 kcal/mol. Consider HEFRDEISVLKANNAHFDKIFEKHNQLDDDIKTAEQQNASDAEVSHMKKQKLKLKDEIHSMIIEYREK [P15A], for which the “folding stability dG” value worked out at 0.443 kcal/mol.

Consider HEFRDEISVLKANNFHFDKIFEKHNQLDDDIKTAEQQNASDAEVSHMKKQKLKLKDEIHSMIIEYREK [P15F], for which the “folding stability dG” value was -0.013 kcal/mol. Consider HEFRDEISVLKANNPCFDKIFEKHNQLDDDIKTAEQQNASDAEVSHMKKQKLKLKDEIHSMIIEYREK [H16C], for which the “folding stability dG” value came to 0.932 kcal/mol.

Take HEFRDEISVLKANNPEFDKIFEKHNQLDDDIKTAEQQNASDAEVSHMKKQKLKLKDEIHSMIIEYREK [H16E]: the “folding stability dG” value was determined as 0.338 kcal/mol. For HEFRDEISVLKANNPMFDKIFEKHNQLDDDIKTAEQQNASDAEVSHMKKQKLKLKDEIHSMIIEYREK [H16M], the “folding stability dG” value was -0.101 kcal/mol. As for HEFRDEISVLKANNPGFDKIFEKHNQLDDDIKTAEQQNASDAEVSHMKKQKLKLKDEIHSMIIEYREK [H16G], the “folding stability dG” value was -0.149 kcal/mol. HEFRDEISVLKANNPRFDKIFEKHNQLDDDIKTAEQQNASDAEVSHMKKQKLKLKDEIHSMIIEYREK [H16R]: the “folding stability dG” value stood at 0.534 kcal/mol. As to HEFRDEISVLKANNPLFDKIFEKHNQLDDDIKTAEQQNASDAEVSHMKKQKLKLKDEIHSMIIEYREK [H16L], the “folding stability dG” value turned out to be 0.427 kcal/mol. Regarding HEFRDEISVLKANNPQFDKIFEKHNQLDDDIKTAEQQNASDAEVSHMKKQKLKLKDEIHSMIIEYREK [H16Q], the “folding stability dG” value was found to be 0.27 kcal/mol.

HEFRDEISVLKANNPDFDKIFEKHNQLDDDIKTAEQQNASDAEVSHMKKQKLKLKDEIHSMIIEYREK [H16D]: the “folding stability dG” value was -0.361 kcal/mol.

On to HEFRDEISVLKANNPFFDKIFEKHNQLDDDIKTAEQQNASDAEVSHMKKQKLKLKDEIHSMIIEYREK [H16F], for which the “folding stability dG” value amounted to 0.373 kcal/mol. For HEFRDEISVLKANNPSFDKIFEKHNQLDDDIKTAEQQNASDAEVSHMKKQKLKLKDEIHSMIIEYREK [H16S] the value was -0.066 kcal/mol; for HEFRDEISVLKANNPAFDKIFEKHNQLDDDIKTAEQQNASDAEVSHMKKQKLKLKDEIHSMIIEYREK [H16A], 0.24 kcal/mol; for HEFRDEISVLKANNPNFDKIFEKHNQLDDDIKTAEQQNASDAEVSHMKKQKLKLKDEIHSMIIEYREK [H16N], -0.56 kcal/mol. With HEFRDEISVLKANNPTFDKIFEKHNQLDDDIKTAEQQNASDAEVSHMKKQKLKLKDEIHSMIIEYREK [H16T], the “folding stability dG” value was determined as 0.264 kcal/mol.

As for HEFRDEISVLKANNPIFDKIFEKHNQLDDDIKTAEQQNASDAEVSHMKKQKLKLKDEIHSMIIEYREK [H16I], the “folding stability dG” value stood at 0.609 kcal/mol. As for HEFRDEISVLKANNPKFDKIFEKHNQLDDDIKTAEQQNASDAEVSHMKKQKLKLKDEIHSMIIEYREK [H16K], the “folding stability dG” value amounted to 0.147 kcal/mol. With HEFRDEISVLKANNPWFDKIFEKHNQLDDDIKTAEQQNASDAEVSHMKKQKLKLKDEIHSMIIEYREK [H16W], the “folding stability dG” value came out at 1.1 kcal/mol. For HEFRDEISVLKANNPVFDKIFEKHNQLDDDIKTAEQQNASDAEVSHMKKQKLKLKDEIHSMIIEYREK [H16V], the “folding stability dG” value was determined as 0.505 kcal/mol. Under HEFRDEISVLKANSPHFDKIFEKHNQLDDDIKTAEQQNASDAEVSHMKKQKLKLKDEIHSMIIEYREK [N14S] stands 0.54 kcal/mol; under HEFRDEISVLKANVPHFDKIFEKHNQLDDDIKTAEQQNASDAEVSHMKKQKLKLKDEIHSMIIEYREK [N14V], -0.058 kcal/mol. As for HEFRDEISVLKANYPHFDKIFEKHNQLDDDIKTAEQQNASDAEVSHMKKQKLKLKDEIHSMIIEYREK [N14Y], the “folding stability dG” value is 0.963 kcal/mol. Turning to HEFRDEISVLKANWPHFDKIFEKHNQLDDDIKTAEQQNASDAEVSHMKKQKLKLKDEIHSMIIEYREK [N14W], the “folding stability dG” value amounted to 1 kcal/mol.

Source of the values: the MegaScale stability set (Tsuboyama et al. 2023).
